From the nanobody polyreactivity screen of Harvey et al. (2022)

Test: yeast display, Sf9 membrane polyspecificity reagent, FACS + sequencing; frameworks hold sequencing errors
Procedure, shortened: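 Using colony PCR, genes from sorted yeast display clones were amplified, then sequenced on MiSeq at 2 × 250 and filtered by CDR length. The clones had been stained with 10% biotinylated, detergent-solubilized Sf9 membrane reagent for 1 hour at 4 °C and sorted by FACS into low and high (top ~1%) gates on anti-HA and streptavidin fluorescence. Polyreactivity labels come from the gate of origin.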

| Sequence | polyreactivity (PSR sort gate) |
| --- | --- |
| QVQLVESGGGLVQAGGSLRLSCAASGSILLYYTMGWYRQAPGKERELVASITSGGRTYYADSVKGRFTISRDNAKNTVYLQMNSLKPEDTAVYFCAADVWKLYDYWGQGTQVTVSS | low polyreactivity |
| QVQLVESGGGLVQAGGSLRLSCAASGSILNIYTMGWYRQAPGTERELVAAITSGDITYYADSVKGLFTISRDNAKNTVYLQMISLKPEDTAVYYCAADASSQINEWLSYGEGYNYWGQGTQVTVSS | low polyreactivity |
| QVQLVESGGGLVQAGGSLRLSCAASGSILNNYAMGWYRQAPGKERELVAAISSSGGTNYADSVKGRFTISRDNAKNTVYLQMNSLKPEDTAVYYCNADVLDGGYDYWVQGTQVTVSS | low polyreactivity |
| QVQLVESGGGLVQAGGSLRLSCAASGSILNSYAMGWYRQAPGKERELVASITVIGGSTYYADSVKGRFSISRDNAKNTDYLQMNSLKPEDTAVYYCNKEWIIADAYYGVHDYYYWGQGTQVTVSS | low polyreactivity |
| QVQLVESGGGLVQAGGSLRLSCAASGSILPDYAMGWYRQAPGKERELVASITNSGDSTYYADSVKGRFTISRDNAKNPVYLQMNSLKPEDTAVYYCNADSVRYDYSANDYEYWGQGSQVTVSS | high polyreactivity |
| QVQLVESGGGLVQAGGSLRLSCAASGSILPVNAMGWYRQAPGKERELVAAITSSGSTTYADSVKGRFTISRDNAKNTVYLQMNSLKEEDTAVYYCAADVYWSYYLYYIYKGGYWGQGTQVTVSS | low polyreactivity |
| QVQLVESGGGLVQAGGSLRLSCAASGSILRDHAMGWYRQATGKERELVAAITSGDSTHYADSVKGRFTISRDNAKNTVYLQMNSLKPEDTAVYYCATKWSLISIHGYYYWGQGTQVTVSS | low polyreactivity |
| QVQLVESGGGLVQAGGSLRLSCAASGSILRPNVMGWYRQAPGKERELVARISSRGVNTYYADSVKGRFTLSRDNAKNTVYLQMHSLKPEDTAVFYCNARRAQYYWNRSAKYDYWGQGTQVTVSS | high polyreactivity |
| QVQLVESGGGLVQAGGSLRLSCAASGSILRQYAMGWYRQAPGKERELVATITGDGSTNYADSVKGRFTISRDNAKNTVYLQMNSLKPEDTAVYYCAADQTYTYEYWGQGTQVTVSS | low polyreactivity |
| QVQLVESGGGLVQAGGSLRLSCAASGSILRQYAMGWYRQAPGKERELVATITGDGSTNYADSVKGRFTISRDNAKNTVYLQMNSLKPEDTAVYYCNAELPVHWSWYDYWGQGTQVTVSS | low polyreactivity |
| QVQLVESGGGLVQAGGSLRLSCAASGSILRRYAMGWYRQAPGKEREFVAAISYSGSRTYYADSVKGRFTISRDNAKNTVYLQMNSLKPEDTAVYYCAADSYGSRYEYWGQGTQVTVSS | high polyreactivity |
| QVQLVESGGGLVQAGGSLRLSCAASGSILRSNAMGWYRQAPGKERELVATITNSGGSTYADSVKGCFTISRDNAKNTVYLQMNSLKPEDTAVYYCAKAGAGESIAKYDYWGQGTQVTVSS | low polyreactivity |
| QVQLVESGGGLVQAGGSLRLSCAASGSILSGYAMGWYRQAPGKETELVAAITSGGDTNYADSVKGRFTISRDNAKNTVYLQMNSLKPEDTAVYYCNRRGDFRIAYYDPMDYWGQGTQVTVSS | low polyreactivity |
| QVQLVESGGGLVQAGGSLRLSCAASGSILSLYTMGWYRQAPGKERELVAAITSRGTRTYYADSVKGRFTISRDYAKNTVYLQMNRLKPEDTAVYYCAAGSYYWGQGTQVTVSS | high polyreactivity |
| QVQLVESGGGLVQAGGSLRLSCAASGSILSSYAMGWYRQAPGKERELVAAISYTGDSTYYADSVKGRFTISRDNAKNTVYLQMNSLKPEDTAVYYCAAELLPPYYYRWLEYWGQGTQVTVSS | low polyreactivity |
| QVQLVESGGGLVQAGGSLRLSCAASGSILSTYAMGWYRQAPGKERELVASISSNAGSTYYADSVKGRFTISRDNAKNTVYLQMNSLKPEDTAVYYCATESYVEGDYWGQGTQVTVSS | low polyreactivity |
| QVQLVESGGGLVQAGGSLRLSCAASGSILSYYVMGWYRPAPGKERELVAAITSDGSTNYADSVKGRFTISRDNAKNTVYLQMNSLKPEDTAVYYCAAVIAWYYGVQDVYYLGLYDYWGQGTQVTVSS | low polyreactivity |
| QVQLVESGGGLVQAGGSLRLSCAASGSILTHYAMGWYRQAPGKERELVAGIPWSGTSTYYADSVKGRFTISRDNAKNTVYLQMNSLKPEDTAVYYCNARHYGWGFAWKYDYWGQGTQVTVSS | low polyreactivity |
| QVQLVESGGGLVQAGGSLRLSCAASGSILTVYAMGWYRQAPGKERELVARIRSGDRTYYADSVKGRFTISRDNAKNSVYLQMNSLKPEDTAVYYFAAGSQLRYYHTNWDSFNYWGQGTQVTVSS | low polyreactivity |
| QVQLVESGGGLVQAGGSLRLSCAASGSILTWYPMGWYRQAPRKERELVAAITRGGSTYADSVKGRFTISRDNAKNTVYLQMNILKPEDTAVYYCKAVYGVYVFNYWGQGTQVSVSS | low polyreactivity |
| QVQLVESGGGLVQAGGSLRLSCAASGSILVDNAMASYRQAPGKERELVARITGSGGSTYYADSVKGRFTISRDNAKNSVYLQMHILKPEDTAVYYCAARRVNAGWTYGLRGNYWGQGTQVTVSS | low polyreactivity |
| QVQLVESGGGLVQAGGSLRLSCAASGSILVHYSMGWYRQAPGKERELVAAISRGGSTNYADSVKGRFTISRDNAKNTVYLQMNSLKPEDTAVYYCAARRPWGEYYWGQGTQVTVSS | low polyreactivity |

| Sequence | polyreactivity (PSR sort gate) |
| --- | --- |
| QVQLVESGGGLVQAGGSLRLSCAASGSILVSYAMARYSQAPGKERELVAAISGNSDSTYYADSVKGRFTISRDNAKNTVYLQMNSLKPEDTAVYYCAKEGGNGYDYWGQGTQVTVSS | low polyreactivity |
| QVQLVESGGGLVQAGGSLRLSCAASGSILVSYAMGWYRQAPGKERELVAAITSGGRTKYADSVKGRFTISRDNAKNTVYLQMNSLKPEDTAVYYCAADDPLSYQFDYWGQGTQVTVSS | high polyreactivity |
| QVQLVESGGGLVQAGGSLRLSCAASGSILYAYAMGWYRQAPGKERELLAAISSSGGGTYADSVKGRFTISRDNAKNTVYLQMNSLKPEDTAVYYCNADARGGIYFRGVKFDYWGQGTQVTVSS | high polyreactivity |
| QVQLVESGGGLVQAGGSLRLSCAASGSILYINAMGWYRQAPGKERELVAAITYSGGSTYYADSVKGRFTISRDNAKNTVYLQMNSLKPEDTAVYYCAADAVVAGRYDGHDYWGQGTQVTVSS | low polyreactivity |
| QVQLVESGGGLVQAGGSLRLSCAASGSILYIYAMGWYRQAPGKERELVASINSGGSTYYADSVKGRFTISRDNAKNTVYLHMYSLKPEDTGVYYCAKQGVDYWGQGTQVTVSS | low polyreactivity |
| QVQLVESGGGLVQAGGSLRLSCAASGSILYRYTMGWDRQAPGKERELVAAISFSGGRTYYADSVKGRFTISRDNAKNTVYLQMNSLKPEDTAVYYCNAGTSGKYGYWGQGTQVTVSS | high polyreactivity |
| QVQLVESGGGLVQAGGSLRLSCAASGSILYSNMGWYRQAPGKERELVAAITYSGGRTYYADSVKGRFTISRDNAKNTVYLQMNSLKPEDTAVYYCAARLATYGASTYYYWGQGTQVTVSS | high polyreactivity |
| QVQLVESGGGLVQAGGSLRLSCAASGSILYTYAMGWYRQAPGKERELVASISSNAGSTYYADSVKGRFTISRDNAKNTVYLQMNSLKPEDTAVYYCNKVYGGGTYDYWGQGTQVTVSS | low polyreactivity |
| QVQLVESGGGLVQAGGSLRLSCAASGSILYTYAMGWYRQSPGKERELVAAISRGGGSTYYADSVKGRFTISRDNAKNSVYLQMNSLKPEDSAVYYCAARKLTRGSGRDDEYWGQGTQVTVSS | high polyreactivity |
| QVQLVESGGGLVQAGGSLRLSCAASGSIQGYVMGWYRQAPGKERELVAAITNGGSTYYADSVKGRFTISRDNAKNTVYLQMISLKPEDTAVYYCAKRKFRWPYQGSYSYIPFGYWGQGTQVTVSS | high polyreactivity |
| QVQLVESGGGLVQAGGSLRLSCAASGSIRSYAMGWYRQAPGKERELVAAITRSGGSTYYADSVKGRFTLSRDNAKNSVYLQMNSLKPEDTAVYYCAARYTYSYPYYRYNYWGQGTQVTVSS | high polyreactivity |
| QVQLVESGGGLVQAGGSLRLSCAASGSISADDVMGWYRQAPGKERELVAAISVSAGTTYYADSVKGRFTISRDNAKNSVYLQMNSLKPEDSAVYYCAATDSYYWLYYYGYSPGNDYWGQGTQVNVSS | low polyreactivity |
| QVQLVESGGGLVQAGGSLRLSCAASGSISFINAIGWYRQATGKERELVAAISGSGGSTYYADSVKGRFTISRDNAKNTVFLQMNSLKPEDTAVYYCAVPLPSRIYGYWGQGTQVTVSS | low polyreactivity |
| QVQLVESGGGLVQAGGSLRLSCAASGSISFINAMGWYRQAPGKERELVAAITPGASTNYADSVKGRFTISRDNAKNTVYLQLNSLKPEDTAVYFCAAGWVSFEDWVLGSYYEYDYWGLGTQVTVSS | low polyreactivity |
| QVQLVESGGGLVQAGGSLRLSCAASGSISGVYAMGWYRQAPGKERELVAAISRSGGSTYYADSVKGRFTISRDNAKNTVYLQMNSLKPEDTAVYYCAAEYTYYSYGGNYDYWGQGTQVTVSS | low polyreactivity |
| QVQLVESGGGLVQAGGSLRLSCAASGSISKGYAMGWYRQAPGKERELVARISGDGGSTYYADSVKGRFTISRDNAKNTVYLQMNSLKPEDTAVYYCNTRQQFTLTRGVFLHNYWGQGTQVTVSS | high polyreactivity |
| QVQLVESGGGLVQAGGSLRLSCAASGSISKSYAMGWYRQAPGKERELVAVITSGGNTYYADSVKGRFTISRDNAKNTVYLQMNSLKPEDTAVYYCAADYHWYTEDDYWGQGTQVTVSS | high polyreactivity |
| QVQLVESGGGLVQAGGSLRLSCAASGSISNFYAMGWYRQAPGKEREFVAAISTRDGTKRFADSVKGRFTISRDNAKNTVYLQMNSLKPEDTAVYYCAAKGGGVWLYARIYSDYYWGQGTQVTVSS | low polyreactivity |
| QVQLVESGGGLVQAGGSLRLSCAASGSISRLYAMRWYRQAPGKERELVARITSSGGRTYYADSVKGRFTISRDNAKNTVYLQMHSLKPEDTAVYYCAARGYVSVWRPYHWFVAGDYWGQGTQVTVSS | high polyreactivity |
| QVQLVESGGGLVQAGGSLRLSCAASGSISRQYALGWYRQAPGTERELVAAITVRGGSTYYADSVKGRFTISRDNAKNTVYLQMNSLKPEDTAVYYCAKYTRYSASYDYWGQGTQVTVSS | high polyreactivity |
| QVQLVESGGGLVQAGGSLRLSCAASGSISSAYAMGWYRQAPGKERELVAVITSGGSTNYADSVKGRFTISRDNAKNTVYLQMNSLKPEDTAVYYCNADTVAPLPYDYWGQGTQVTVSS | low polyreactivity |
